Laboratory results from publication PMC11543927, “Subtleties in Clathrin heavy chain binding boxes provide selectivity among adaptor proteins of budding yeast” (Nature Communications, 2024).
Substitutions are numbered along the chain they refer to.

T1: ScChc-NTD Clathrin and Arrestin box mutant (Cla+Arr) (Saccharomyces cerevisiae, UniProt P22137 1-369, K63E | I87D | Q89A | K98E | Q195A | I197T | K251E)
T1 construct: Clathrin heavy chain N-terminal domain, Saccharomyces cerevisiae, residues 1-369, Clathrin and Arrestin box mutant
T1 sequence (looked up): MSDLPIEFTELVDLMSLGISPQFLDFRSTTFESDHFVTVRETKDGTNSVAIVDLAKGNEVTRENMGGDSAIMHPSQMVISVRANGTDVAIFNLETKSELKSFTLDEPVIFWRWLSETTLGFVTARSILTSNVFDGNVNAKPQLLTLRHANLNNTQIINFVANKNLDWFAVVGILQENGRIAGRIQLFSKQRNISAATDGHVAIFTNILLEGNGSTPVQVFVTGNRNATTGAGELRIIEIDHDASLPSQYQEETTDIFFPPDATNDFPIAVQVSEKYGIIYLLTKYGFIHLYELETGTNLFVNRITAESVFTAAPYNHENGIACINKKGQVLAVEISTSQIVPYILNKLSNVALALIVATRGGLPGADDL

T2: ScChc-NTD Arrestin and W box mutant (Arr+W) (Saccharomyces cerevisiae, UniProt P22137 1-369, F26A | Q155A | Q195A | I197T | K251E)
T2 construct: Clathrin heavy chain N-terminal domain, Saccharomyces cerevisiae, residues 1-369, Arrestin and W box mutant
T2 sequence (looked up): T1 sequence (looked up) with F26A, E63K, D87I, A89Q, E98K, Q155A

T3: ScChc-NTD Clathrin box mutant (K63E, I87D, Q89A, K98E) (Saccharomyces cerevisiae, UniProt P22137 1-369, K63E | I87D | Q89A | K98E)
T3 construct: Clathrin heavy chain N-terminal domain, Saccharomyces cerevisiae, residues 1-369, Clathrin box mutant; also called Cla mutant
T3 sequence (looked up): T1 sequence (looked up) with A195Q, T197I, E251K

T4: ScChc-NTD Arrestin box mutant (Q195A, I197T, K251E) (Saccharomyces cerevisiae, UniProt P22137 1-369, Q195A | I197T | K251E)
T4 construct: Clathrin heavy chain N-terminal domain, Saccharomyces cerevisiae, residues 1-369, Arrestin box mutant; also called Arr mutant
T4 sequence (looked up): T1 sequence (looked up) with E63K, D87I, A89Q, E98K

T5: Saccharomyces cerevisiae clathrin heavy chain N-terminal domain (ScChc-NTD, 1-369) (Saccharomyces cerevisiae, UniProt P22137 1-369)
T5 construct: Clathrin heavy chain N-terminal domain, Saccharomyces cerevisiae, residues 1-369; pETM-30 vector with a His-GST tag and a TEV cleavage site; also called WT NTD; source: E. coli BL21 (DE3), purified (Ni-NTA, TEV cleavage, reverse Ni-NTA, SEC)
T5 sequence (looked up): T1 sequence (looked up) with E63K, D87I, A89Q, E98K, A195Q, T197I, E251K

B1: Ent1 CBM peptide (GYTLIDL) (peptide)
peptide: GYTLIDL
notes: also called Ent1 peptide; source: synthetic peptide, bought: NovoProLabs
B2: Ent2 CBM peptide (GVSLIDL) (peptide)
peptide: GVSLIDL
notes: also called Ent2 peptide; source: synthetic peptide, bought: NovoProLabs

How the values were obtained:
Details in all cases: both partners purified
[1] = biological target: T1, ScChc-NTD Clathrin and Arrestin box …; assay: nanoDSF thermal shift; ScChc-NTD mutants 10 µM with Ent1 or Ent2 peptide, thermal ramp up to 80 °C; apparent KD from the Tm shift model
[2] = biological target: T2, ScChc-NTD Arrestin and W box mutant …; assay: as above
[3] = biological target: T3, ScChc-NTD Clathrin box mutant (K63E, …); assay: as above
[4] = biological target: T4, ScChc-NTD Arrestin box mutant (Q195A, …); assay: as above
[5] = biological target: T5, Saccharomyces cerevisiae clathrin heavy …; assay: nanoDSF thermal shift; ScChc-NTD 8 µM incubated with eleven peptide concentrations (1:1 dilutions) for 15 min, heated 20-95 °C at 1 °C/min, SEC buffer (50 mM Tris pH 9, 150 mM NaCl, 0.5 mM TCEP); apparent KD from the Tm shift model, one to one binding assumed, global average over all boxes

Binder | Kd [1] | binding result [2] | Kd [3] | Kd [4] | Kd [5] | fold decrease in affinity against WT NTD [1]
B1 | ~2050 µM | binds | ~968 µM | ~166 µM | ~138 µM | –
B2 | – | binds | ~509 µM | ~216 µM | ~177 µM | ~5 fold
